The text below walks through data of US20260001961A1 (ALLIGATOR BIOSCIENCE, published 2026).

Like-named read-outs stand apart in the source and are kept apart here.

Test [1] deals with T1, CD40 (UniProt P25942 21-193).
T1 construct: also called biotinylated CD40; CD40 antigen
Put plainly: dual ELISA: CD40 coated, bsAb titrated, biotinylated EpCAM + streptavidin-HRP; signal needs both targets.
Procedure: (§1) Dual ELISA Plates were coated with 0.5 μg/mL CD40 in PBS over night at 4° C. After washing in PBS/0.05% Tween 20 (PBST), the plates were blocked with PBS/2% BSA for at least 30 minutes at room temperature before being washed again. Samples serially diluted in PBS/0.5% BSA were then added and allowed to bind for at least 1 hour at room temperature. […] Dual complexed bsAb with CD40 and EpCAM were detected with HRP-labelled streptavidin. SuperSignal Pico Luminescent was used as substrate and luminescence signals were measured using Fluostar Optima.

Test [2] deals with T2, EpCAM (UniProt P16422 24-265).
T2 construct: also called biotinylated EpCAM
T2 sequence (looked up): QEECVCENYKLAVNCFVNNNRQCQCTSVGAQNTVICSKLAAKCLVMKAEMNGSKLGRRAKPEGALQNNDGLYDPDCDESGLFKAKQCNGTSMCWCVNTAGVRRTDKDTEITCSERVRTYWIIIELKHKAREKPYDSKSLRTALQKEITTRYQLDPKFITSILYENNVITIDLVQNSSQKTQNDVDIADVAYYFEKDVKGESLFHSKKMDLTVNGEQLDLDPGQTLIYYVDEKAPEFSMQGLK
Kind of test: Octet BLI; biotinylated EpCAM on streptavidin sensor.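 Also: octet RED96 kinetics: 300 s association, then 300 s dissociation in 1x Kinetic buffer, buffer-blank referenced, Savitzky-Golay smoothed, fitted to a 1:1 Langmuir binding model.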

The target in test [3] is T1, CD40. Put plainly: Octet BLI; biotinylated CD40 on streptavidin sensor.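 Also: octet RED96 biolayer interferometry, 300 s association then 300 s dissociation in kinetic buffer, buffer-blank referenced, fitted with a 1:1 Langmuir binding model.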 On the technique in general: Biolayer interferometry detects binding as a change in optical thickness at a sensor tip.
Procedure: Kinetic measurements were performed using the Octet RED96 platform (ForteBIo). […] Association was followed for 300 seconds followed by dissociation in 1x Kinetic buffer for 300 seconds. Sensor tips were regenerated using 10 mM glycine, pH 1.7. Data generated were referenced by subtracting a parallel buffer blank, the baseline was aligned with the γ-axis, inter-step correlation by alignment against dissociation was performed and the data were smoothed by a Savitzky-Golay filter in the data analysis software (v.9.0.0.14). The processed data were fitted using a 1:1 Langmuir binding model with X2 as a measurement of fitting accuracy.
Binding affinities of all the variants were determined using Octet (Pall ForteBio).
Test [4] concerns the target T1, CD40. Put plainly: dual ELISA: CD40 coated, bsAb titrated, biotinylated EpCAM + streptavidin-HRP; signal needs both targets. The source holds these as a separate data set. In general terms: An ELISA detects its analyte on a solid surface through an enzyme-linked reagent.
Procedure: as §1

One may read the EC50 (read off the curve) as the midpoint of the concentration-response curve. In general, Kd refers to the constant that tells how readily two partners part at equilibrium. One may read the koff as the first-order rate constant of dissociation. Read a high koff as a short-lived complex. One may read the kon as a measure of how fast the partners come together. A low value points to slower complex formation.

T1 sequence (P25942 21-193 limits assumed): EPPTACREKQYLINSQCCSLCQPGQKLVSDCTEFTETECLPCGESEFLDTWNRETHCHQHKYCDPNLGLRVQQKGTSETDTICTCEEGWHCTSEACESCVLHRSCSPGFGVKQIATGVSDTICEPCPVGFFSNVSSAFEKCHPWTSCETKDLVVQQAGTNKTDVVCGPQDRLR

B1: AM_4109-4126 (bispecific antibody)
heavy 1: not shown
light: DIQMTQSPSSLSASVGDRVTITCRASQSISSYLNWYQEKPGKAPKLLIYAASSLQSGVPSRFSGSGSGTDFTLTISSLQPEDFATYYCQQYGRNPPTFGQGTKLEIKRTVAAPSVFIFPPSDEQLKSGTASVVCYLNNFYPREAKVQWKVDNALQSGNSQESVTEQDSKDSTYSLWSTLTLSKADYEKHKVYACEVTHQGLSSPVTKSFNRGEC
heavy 2: EVQLLEQSGAELVRPGTSVKISCKASGYAFTNYWLGWVKERPGHGLEWIGDIFPGSGNIHYNEKFKGKATLTADKSSSTAYMQLSSLTFEDSAVYFCARLRNWDEPMDYWGQGTTVTVSSASTKGPSVFPLAPSSKSTSGGTAALGCLVKDYFPEPVTVSWNSGALTSGVHTFPAVLQSSGLISLSSVVEVPSSSLGTQTYICNVNHKPSNTKVDKKVEPKSC
notes: AC_05293 backbone; also called double mutant I126A + Y180I; copies: 2 + 2 + 2
With B1, in test [1], the “EC50 (read off the curve)” value is around 0.9 nM. For the same molecule, in test [2], the dissociation constant Kd was found to be 4.3 nM, the off-rate (koff) turned out to be 0.00077 s⁻¹ and the on-rate (kon) was determined as 180000 M⁻¹ s⁻¹. In test [3], this molecule returned a dissociation constant Kd of 1.2 nM, a koff of 0.0006 s⁻¹ and a kon of 480000 M⁻¹ s⁻¹.

B2: AM_4120-4126 (bispecific antibody)
heavy 1: not shown
light: DIQMTQSPSSLSASVGDRVTITCRASQSISSYLNWYQEKPGKAPKLLIYAASSLQSGVPSRFSGSGSGTDFTLTISSLQPEDFATYYCQQYGRNPPTFGQGTKLEIKRTVAAPSVFIFPPSDEQLKSGTASVVCYLNNFYPREAKVQWKVDNALQSGNSQESVTEQDSKDSTYSLWSTLTLSKADYEKHKVYACEVTHQGLSSPVTKSFNRGEC
heavy 2: EVQLLEQSGAELVRPGTSVKISCKASGYAFTNYWLGWVKERPGHGLEWIGDIFPGSGNIHYNEKFKGKATLTADKSSSTAYMQLSSLTFEDSAVYFCARLRNWDEPMDYWGQGTTVTVSSASTKGPSVFPLAPSSKSTSGGTAALGCLVKDYFPEPVTVSWNSGALTSGVHTFPAVLQSSGLISLSSVVEVPSSSLGTQTYICNVNHKPSNTKVDKKVEPKSC
notes: AC_05293 backbone; also called double mutant A111V + Y180I; copies: 2 + 2 + 2
Take B2: in test [2], the dissociation constant Kd stood at 5.6 nM, the off-rate constant (koff) turned out to be 0.0013 s⁻¹ and the on-rate (kon) was 230000 M⁻¹ s⁻¹. In test [3], this molecule yielded a Kd of 0.86 nM, a koff of 0.001 s⁻¹ and a kon of 1.2e+06 M⁻¹ s⁻¹.

B3: AM_4120-4134 (bispecific antibody)
heavy 1: not shown
light: DIQMTQSPSSLSASVGDRVTITCRASQSISSYLNWYQEKPGKAPKLLIYAASSLQSGVPSRFSGSGSGTDFTLTISSLQPEDFATYYCQQYGRNPPTFGQGTKLEIKRTVAAPSVFIFPPSDEQLKSGTASVVCYLNNFYPREAKVQWKVDNALQSGNSQESVTEQDSKDSTYSLWSTLTLSKADYEKHKVYACEVTHQGLSSPVTKSFNRGEC
heavy 2: EVQLLEQSGAELVRPGTSVKISCKASGYAFTNYWLGWVKERPGHGLEWIGDIFPGSGNIHYNEKFKGKATLTADKSSSTAYMQLSSLTFEDSAVYFCARLRNWDEPMDYWGQGTTVTVSSASTKGPSVFPLAPSSKSTSGGTAALGCLVKDYFPEPVTVSWNSGALTSGVHTFPAVLQSSGLYSLSSVVEGPSSSLGTQTYICNVNHKPSNTKVDKKVEPKSC
notes: AC_05293 backbone; also called double mutant A111V + V188G; copies: 2 + 2 + 2
For the molecule B3, in test [2], the affinity, expressed as Kd, was 5.8 nM; the koff worked out at 0.0014 s⁻¹; the kon amounted to 250000 M⁻¹ s⁻¹. In test [3], this molecule yielded a dissociation constant (Kd) of 0.91 nM, an off-rate constant (koff) of 0.0011 s⁻¹ and a kon of 1.2e+06 M⁻¹ s⁻¹.

B4: AM_4120-4131 (bispecific antibody)
heavy 1: not shown
light: DIQMTQSPSSLSASVGDRVTITCRASQSISSYLNWYQEKPGKAPKLLIYAASSLQSGVPSRFSGSGSGTDFTLTISSLQPEDFATYYCQQYGRNPPTFGQGTKLEIKRTVAAPSVFIFPPSDEQLKSGTASVVCYLNNFYPREAKVQWKVDNALQSGNSQESVTEQDSKDSTYSLWSTLTLSKADYEKHKVYACEVTHQGLSSPVTKSFNRGEC
heavy 2: EVQLLEQSGAELVRPGTSVKISCKASGYAFTNYWLGWVKERPGHGLEWIGDIFPGSGNIHYNEKFKGKATLTADKSSSTAYMQLSSLTFEDSAVYFCARLRNWDEPMDYWGQGTTVTVSSASTKGPSVFPLAPSSKSTSGGTAALGCLVKDYFPEPVTVSWNSGALTSGVHTFPAVLQSSGLWSLSSVVEVPSSSLGTQTYICNVNHKPSNTKVDKKVEPKSC
notes: AC_05293 backbone; also called double mutant A111V + Y180W; copies: 2 + 2 + 2
In test [2], B4 displayed a Kd of 5.3 nM, an off-rate (koff) of 0.0015 s⁻¹ and a kon of 280000 M⁻¹ s⁻¹. In test [3], this molecule returned a dissociation constant (Kd) of 1.1 nM, a koff of 0.00097 s⁻¹ and an association rate constant (kon) of 920000 M⁻¹ s⁻¹.

B5: 4109 (bispecific antibody)
heavy 1: not shown
heavy 2: EVQLLEQSGAELVRPGTSVKISCKASGYAFTNYWLGWVKERPGHGLEWIGDIFPGSGNIHYNEKFKGKATLTADKSSSTAYMQLSSLTFEDSAVYFCARLRNWDEPMDYWGQGTTVTVSSASTKGPSVFPLAPSSKSTSGGTAALGCLVKDYFPEPVTVSWNSGALTSGVHTFPAVLQSSGLYSLSSVVEVPSSSLGTQTYICNVNHKPSNTKVDKKVEPKSC
light: DIQMTQSPSSLSASVGDRVTITCRASQSISSYLNWYQEKPGKAPKLLIYAASSLQSGVPSRFSGSGSGTDFTLTISSLQPEDFATYYCQQYGRNPPTFGQGTKLEIKRTVAAPSVFIFPPSDEQLKSGTASVVCYLNNFYPREAKVQWKVDNALQSGNSQESVTEQDSKDSTYSLWSTLTLSKADYEKHKVYACEVTHQGLSSPVTKSFNRGEC
notes: CD40 x EpCAM; also called single mutant I126A of AC_05293; copies: 2 + 2 + 2
In the case of B5, the “EC50 (read off the curve)” value in test [4] is around 0.1 µg/mL.

B6: AM_4109-4133 (bispecific antibody)
heavy 1: not shown
light: DIQMTQSPSSLSASVGDRVTITCRASQSISSYLNWYQEKPGKAPKLLIYAASSLQSGVPSRFSGSGSGTDFTLTISSLQPEDFATYYCQQYGRNPPTFGQGTKLEIKRTVAAPSVFIFPPSDEQLKSGTASVVCYLNNFYPREAKVQWKVDNALQSGNSQESVTEQDSKDSTYSLWSTLTLSKADYEKHKVYACEVTHQGLSSPVTKSFNRGEC
heavy 2: EVQLLEQSGAELVRPGTSVKISCKASGYAFTNYWLGWVKERPGHGLEWIGDIFPGSGNIHYNEKFKGKATLTADKSSSTAYMQLSSLTFEDSAVYFCARLRNWDEPMDYWGQGTTVTVSSASTKGPSVFPLAPSSKSTSGGTAALGCLVKDYFPEPVTVSWNSGALTSGVHTFPAVLQSSGLYSLTSVVEVPSSSLGTQTYICNVNHKPSNTKVDKKVEPKSC
notes: AC_05293 backbone; also called double mutant I126A + S183T; copies: 2 + 2 + 2
For the molecule B6, the half-maximal effective concentration (EC50 (read off the curve)) in test [1] is around 0.9 nM. Besides, in test [2], the dissociation constant (Kd) was 4.6 nM, the koff is 0.00092 s⁻¹ and the on-rate (kon) was determined as 200000 M⁻¹ s⁻¹. In test [3], this molecule displayed a Kd of 0.73 nM, a koff of 0.001 s⁻¹ and an on-rate constant (kon) of 1.4e+06 M⁻¹ s⁻¹.

B7: AM_4109-4131 (bispecific antibody)
heavy 1: not shown
light: DIQMTQSPSSLSASVGDRVTITCRASQSISSYLNWYQEKPGKAPKLLIYAASSLQSGVPSRFSGSGSGTDFTLTISSLQPEDFATYYCQQYGRNPPTFGQGTKLEIKRTVAAPSVFIFPPSDEQLKSGTASVVCYLNNFYPREAKVQWKVDNALQSGNSQESVTEQDSKDSTYSLWSTLTLSKADYEKHKVYACEVTHQGLSSPVTKSFNRGEC
heavy 2: EVQLLEQSGAELVRPGTSVKISCKASGYAFTNYWLGWVKERPGHGLEWIGDIFPGSGNIHYNEKFKGKATLTADKSSSTAYMQLSSLTFEDSAVYFCARLRNWDEPMDYWGQGTTVTVSSASTKGPSVFPLAPSSKSTSGGTAALGCLVKDYFPEPVTVSWNSGALTSGVHTFPAVLQSSGLWSLSSVVEVPSSSLGTQTYICNVNHKPSNTKVDKKVEPKSC
notes: AC_05293 backbone; also called double mutant I126A + Y180W; copies: 2 + 2 + 2
On to B7, for which the “EC50 (read off the curve)” value in test [1] was around 0.9 nM. For the same molecule, in test [2], the dissociation constant (Kd) was found to be 4.4 nM, the dissociation rate constant (koff) came to 0.00081 s⁻¹ and the kon came to 180000 M⁻¹ s⁻¹. Also, in test [3], the dissociation constant (Kd) is 0.89 nM, the koff turned out to be 0.00072 s⁻¹ and the kon was determined as 800000 M⁻¹ s⁻¹.

B8: AM_4120-4133 (bispecific antibody)
heavy 1: not shown
light: DIQMTQSPSSLSASVGDRVTITCRASQSISSYLNWYQEKPGKAPKLLIYAASSLQSGVPSRFSGSGSGTDFTLTISSLQPEDFATYYCQQYGRNPPTFGQGTKLEIKRTVAAPSVFIFPPSDEQLKSGTASVVCYLNNFYPREAKVQWKVDNALQSGNSQESVTEQDSKDSTYSLWSTLTLSKADYEKHKVYACEVTHQGLSSPVTKSFNRGEC
heavy 2: EVQLLEQSGAELVRPGTSVKISCKASGYAFTNYWLGWVKERPGHGLEWIGDIFPGSGNIHYNEKFKGKATLTADKSSSTAYMQLSSLTFEDSAVYFCARLRNWDEPMDYWGQGTTVTVSSASTKGPSVFPLAPSSKSTSGGTAALGCLVKDYFPEPVTVSWNSGALTSGVHTFPAVLQSSGLYSLTSVVEVPSSSLGTQTYICNVNHKPSNTKVDKKVEPKSC
notes: AC_05293 backbone; also called double mutant A111V + S183T; copies: 2 + 2 + 2
In test [2], B8 came in with an equilibrium dissociation constant (Kd) of 5.7 nM, a koff of 0.0014 s⁻¹ and a kon of 240000 M⁻¹ s⁻¹. Besides, in test [3], the Kd is 0.9 nM, the off-rate (koff) turned out to be 0.0011 s⁻¹ and the kon turned out to be 1.2e+06 M⁻¹ s⁻¹.

B9: AM_4109-4134 (bispecific antibody)
heavy 1: not shown
light: DIQMTQSPSSLSASVGDRVTITCRASQSISSYLNWYQEKPGKAPKLLIYAASSLQSGVPSRFSGSGSGTDFTLTISSLQPEDFATYYCQQYGRNPPTFGQGTKLEIKRTVAAPSVFIFPPSDEQLKSGTASVVCYLNNFYPREAKVQWKVDNALQSGNSQESVTEQDSKDSTYSLWSTLTLSKADYEKHKVYACEVTHQGLSSPVTKSFNRGEC
heavy 2: EVQLLEQSGAELVRPGTSVKISCKASGYAFTNYWLGWVKERPGHGLEWIGDIFPGSGNIHYNEKFKGKATLTADKSSSTAYMQLSSLTFEDSAVYFCARLRNWDEPMDYWGQGTTVTVSSASTKGPSVFPLAPSSKSTSGGTAALGCLVKDYFPEPVTVSWNSGALTSGVHTFPAVLQSSGLYSLSSVVEGPSSSLGTQTYICNVNHKPSNTKVDKKVEPKSC
notes: AC_05293 backbone; also called double mutant I126A + V188G; copies: 2 + 2 + 2
For the molecule B9, the half-maximal effective concentration (EC50 (read off the curve)) in test [1] is around 0.9 nM. Besides, in test [2], the Kd worked out at 4.7 nM, the koff stood at 0.00098 s⁻¹ and the kon came to 210000 M⁻¹ s⁻¹. In test [3], this molecule gave an equilibrium dissociation constant (Kd) of 0.83 nM, an off-rate (koff) of 0.00092 s⁻¹ and an on-rate constant (kon) of 1.1e+06 M⁻¹ s⁻¹.
